Measured values published in paper PMC9879991, “Biomolecular condensates formed by designer minimalistic peptides” (Nature Communications, 2023).
No end group written: not given here.

Test system: not given
Test: not given
Settings: solution NMR, Trp1-Hα and Trp1-Hβ shifts at pH 6.0, 7.0, 7.5, 8.0, 9.0, Henderson-Hasselbach fit; error by Monte Carlo

Molecule | pKa of the N-terminal amine group
WGRGRGRGWY [WGR-4] | 7.37 ± 0.01
WGRGRGWPGVGY [WGR-5] | 7.51 ± 0.01
WGRGRGRGWPGVGF [WGR-3] | 7.49 ± 0.01

Target: Nterm1 (position 1, -----WGRGRG)
Test: NMR
Settings: 300 K (general NMR methods statement; not restated for the titration), NaCl 0-0.2 M used in NMR samples, concentration for the pKa titration not given, 20 mM Tris (NMR methods), Free peptide in solution, disordered

Molecule | pKa
WGRGRGRGWPGVGY [WGR-1 designer LLPS peptide (synthetic construct)] | 7.50 ± 0.01
WGRGRGRGWPGVGF [WGR-3 designer LLPS peptide (Tyr14 to Phe variant of WGR-1) (synthetic construct; Y14F)] | 7.49 ± 0.01
WGRGRGRGWY [WGR-4 designer LLPS peptide (WGR-1 without the ELP motif) (synthetic construct; del10-13)] | 7.37 ± 0.01
WGRGRGWPGVGY | 7.51 ± 0.01
